Here are results for three proteins from paper PMC11488288.

Data set [1] is described as follows: nuclear/cytoplasmic fractionation and immunofluorescence.
A short description of data set [2]: actinomycin D chase, RT-qPCR. The following applies: glycan lost; control: shYTHDF2 + Flag-YTHDF2 WT.
Data set [3] is described as follows: in vitro ubiquitination with His-OGT and UDP-GlcNAc. As to conditions: glycan lost; control: purified Flag-YTHDF2 WT.
The nature of data set [4]: cycloheximide chase, immunoblot, NP cells. Background: A western blot detects proteins with antibodies after separation by electrophoresis.
Data set [5] is described as follows: HA-Ub, MG132, IP and immunoblot, NP cells.
Data set [6] in a line: immunoblot, with or without MG132, CQ, BafA1. The following applies: glycan lost; control: untreated.
A short description of data set [7]: IHC and Western blot of disc tissue. As to conditions: glycan gained; control: IDD mice given saline.
Data set [8] is described as follows: immunoblot of endogenous YTHDF2, NP cells. The following applies: glycan gained; control: H2O2 alone.
Setting [9] is: glycan lost, control: Flag-YTHDF2 WT.
Where [10] appears, read: glycan gained, control: untreated Flag-YTHDF2 WT.

B1: YTHDF2: S263A (protein)
parent chain: MSASSLLEQRPKGQGNKVQNGSVHQKDGLNDDDFEPYLSPQARPNNAYTAMSDSYLPSYYSPSIGFSYSLGEAAWSTGGDTAMPYLTSYGQLSNGEPHFLPDAMFGQPGALGSTPFLGQHGFNFFPSGIDFSAWGNNSSQGQSTQSSGYSSNYAYAPSSLGGAMIDGQSAFANETLNKAPGMNTIDQGMAALKLGSTEVASSVPKVVGSAVGSGSITSNIVASSSLPPATIAPPKPASWADIASKPAKQQPKLKTKNGIAGSSLPPPPIKHNMDIGTWDNKGPVAKAPSQALVQNIGQPTQGSPQPVGQQANNSPPVAQASVGQQTQPLPPPPPQPAQLSVQQQAAQPTRWVAPRNRGSGFGHNGVDGNGVGQSQAGSGSTPSEPHPVLEKLRSINNYNPKDFDWNLKHGRVFIIKSYSEDDIHRSIKYNIWCSTEHGNKRLDAAYRSMNGKGPVYLLFSVNGSGHFCGVAEMKSAVDYNTCAGVWSQDKWKGRFDVRWIFVKDVPNSQLRHIRLENNENKPVTNSRDTQEVPLEKAKQVLKIIASYKHTTSIFDDFSHYEKRQEEEESVKKERQGRGK
For the protein B1, the localisation_or_trafficking result in data set [1] (setting [9]) was “no change”. For the same protein, the “other: target mRNA stability” value in data set [2] is listed as “decreases”. For the same protein, the “other: ubiquitination” value in data set [3] and in data set [5] (setting [9]) was “increases” in each case. Moreover, in data set [4] (setting [9]), the degradation_or_half_life entry was “decreases”.

B2: YTHDF2: OSMI-1 (protein)
parent chain: MSASSLLEQRPKGQGNKVQNGSVHQKDGLNDDDFEPYLSPQARPNNAYTAMSDSYLPSYYSPSIGFSYSLGEAAWSTGGDTAMPYLTSYGQLSNGEPHFLPDAMFGQPGALGSTPFLGQHGFNFFPSGIDFSAWGNNSSQGQSTQSSGYSSNYAYAPSSLGGAMIDGQSAFANETLNKAPGMNTIDQGMAALKLGSTEVASSVPKVVGSAVGSGSITSNIVASSSLPPATIAPPKPASWADIASKPAKQQPKLKTKNGIAGSSLPPPPIKHNMDIGTWDNKGPVAKAPSQALVQNIGQPTQGSPQPVGQQANNSPPVAQASVGQQTQPLPPPPPQPAQLSVQQQAAQPTRWVAPRNRGSGFGHNGVDGNGVGQSQAGSGSTPSEPHPVLEKLRSINNYNPKDFDWNLKHGRVFIIKSYSEDDIHRSIKYNIWCSTEHGNKRLDAAYRSMNGKGPVYLLFSVNGSGHFCGVAEMKSAVDYNTCAGVWSQDKWKGRFDVRWIFVKDVPNSQLRHIRLENNENKPVTNSRDTQEVPLEKAKQVLKIIASYKHTTSIFDDFSHYEKRQEEEESVKKERQGRGK
Take B2: the localisation_or_trafficking entry in data set [1] (glycan lost, control: untreated) is given as “no change”. For the same protein, the expression_or_secretion entry in data set [6] is “decreases”.

B3: YTHDF2: TMG (protein)
parent chain: MSASSLLEQRPKGQGNKVQNGSVHQKDGLNDDDFEPYLSPQARPNNAYTAMSDSYLPSYYSPSIGFSYSLGEAAWSTGGDTAMPYLTSYGQLSNGEPHFLPDAMFGQPGALGSTPFLGQHGFNFFPSGIDFSAWGNNSSQGQSTQSSGYSSNYAYAPSSLGGAMIDGQSAFANETLNKAPGMNTIDQGMAALKLGSTEVASSVPKVVGSAVGSGSITSNIVASSSLPPATIAPPKPASWADIASKPAKQQPKLKTKNGIAGSSLPPPPIKHNMDIGTWDNKGPVAKAPSQALVQNIGQPTQGSPQPVGQQANNSPPVAQASVGQQTQPLPPPPPQPAQLSVQQQAAQPTRWVAPRNRGSGFGHNGVDGNGVGQSQAGSGSTPSEPHPVLEKLRSINNYNPKDFDWNLKHGRVFIIKSYSEDDIHRSIKYNIWCSTEHGNKRLDAAYRSMNGKGPVYLLFSVNGSGHFCGVAEMKSAVDYNTCAGVWSQDKWKGRFDVRWIFVKDVPNSQLRHIRLENNENKPVTNSRDTQEVPLEKAKQVLKIIASYKHTTSIFDDFSHYEKRQEEEESVKKERQGRGK
On to B3, for which the localisation_or_trafficking result in data set [1] (glycan gained, control: untreated) is on record as “no change”. Besides, the expression_or_secretion entry in data set [7] and in data set [8] was “increases” each time. Also, the degradation_or_half_life result in data set [4] (setting [10]) is “increases”. Further, the “other: ubiquitination” value in data set [5] (setting [10]) is reported as “changes”.
